Measurements: the supplement of paper PMC9112550, “Optimization of the antimicrobial peptide Bac7 by deep mutational scanning” (BMC Biology, 2022)

system: Escherichia coli TOP10; test: shrunken log2 fold change of peptide-encoding DNA abundance (4.5 h post-induction vs induction); higher = less antimicrobial activity (less host growth inhibition); conditions: time post-induction: 4.5 h; library: site-saturation at positions 5, 18, 19, 20
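Further: peptides expressed intracellularly from a pBAD plasmid library in pooled LB shake-flask culture, induced with 0.3% L-arabinose, DNA abundance read by NGS, three biological replicates, DESeq2 with apeglm shrinkage.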

| Sequence | shrunken log2 fold change |
| --- | --- |
| RRIRDRPPRLPRPRPRPQIWPRP | 0.352 |
| RRIRLRPPRLPRPRPRPGIQPRP | -0.0773 |
| RRIRDRPPRLPRPRPRPIDWPRP | 0.129 |
| RRIRARPPRLPRPRPRPHKQPRP | -0.0718 |
| RRIRQRPPRLPRPRPRPLGWPRP | 0.8 |
| RRIRDRPPRLPRPRPRPVYFPRP | -0.447 |
| RRIRARPPRLPRPRPRPHTTPRP | -0.481 |
| RRIRQRPPRLPRPRPRPQRCPRP | 0.0862 |
| RRIRYRPPRLPRPRPRPWQPPRP | -0.274 |
| RRIRNRPPRLPRPRPRPGIEPRP | -0.0795 |
| RRIRWRPPRLPRPRPRPNYIPRP | -0.57 |
| RRIRWRPPRLPRPRPRPFTQPRP | -0.0585 |
| RRIRFRPPRLPRPRPRPAAFPRP | -0.0126 |
| RRIRHRPPRLPRPRPRPDTFPRP | -1.19 |
| RRIRDRPPRLPRPRPRPMNYPRP | 0.185 |
| RRIRHRPPRLPRPRPRPTGAPRP | 0.0132 |
| RRIRTRPPRLPRPRPRPQMEPRP | 0.00225 |
| RRIRRRPPRLPRPRPRPLWVPRP | 0.382 |
| RRIRMRPPRLPRPRPRPILGPRP | -0.00884 |
| RRIRLRPPRLPRPRPRPQHKPRP | -0.0846 |
| RRIRLRPPRLPRPRPRPHNRPRP | -0.205 |
| RRIRGRPPRLPRPRPRPCCDPRP | 0.769 |
| RRIRKRPPRLPRPRPRPSHVPRP | 0.164 |
| RRIRVRPPRLPRPRPRPQDDPRP | -0.006 |
| RRIRLRPPRLPRPRPRPSVKPRP | -0.0487 |

| Sequence | shrunken log2 fold change |
| --- | --- |
| RRIRKRPPRLPRPRPRPHARPRP | 0.709 |
| RRIRSRPPRLPRPRPRPDEPPRP | 0.0784 |
| RRIRWRPPRLPRPRPRPKNGPRP | -0.156 |
| RRIRVRPPRLPRPRPRPWGSPRP | -0.137 |
| RRIRKRPPRLPRPRPRPWRWPRP | 0.595 |
| RRIRERPPRLPRPRPRPMYKPRP | -0.0299 |
| RRIRIRPPRLPRPRPRPMLDPRP | 0.0726 |
| RRIRFRPPRLPRPRPRPWSTPRP | -0.0601 |
| RRIRTRPPRLPRPRPRPPVGPRP | 1.18 |
| RRIRSRPPRLPRPRPRPNCEPRP | -0.133 |
| RRIRTRPPRLPRPRPRPNTQPRP | -0.0477 |
| RRIRYRPPRLPRPRPRPHDNPRP | -1.04 |
| RRIRCRPPRLPRPRPRPGYEPRP | -0.00917 |
| RRIRCRPPRLPRPRPRPRMRPRP | 0.542 |
| RRIRTRPPRLPRPRPRPYSVPRP | -0.027 |
| RRIRHRPPRLPRPRPRPLCSPRP | -0.285 |
| RRIRSRPPRLPRPRPRPYISPRP | -0.0172 |
| RRIRGRPPRLPRPRPRPYRCPRP | -0.00655 |
| RRIRQRPPRLPRPRPRPPWGPRP | 0.242 |
| RRIRPRPPRLPRPRPRPWKEPRP | -0.164 |
| RRIRARPPRLPRPRPRPKECPRP | 0.0495 |
| RRIRHRPPRLPRPRPRPTMLPRP | -0.468 |
| RRIRMRPPRLPRPRPRPLDGPRP | 0.844 |
| RRIRSRPPRLPRPRPRPQGAPRP | 2.34 |
| RRIRVRPPRLPRPRPRPEFQPRP | -0.0311 |

| Sequence | shrunken log2 fold change |
| --- | --- |
| RRIRKRPPRLPRPRPRPLHCPRP | 0.0213 |
| RRIRWRPPRLPRPRPRPTWFPRP | -0.0378 |
| RRIRDRPPRLPRPRPRPKWDPRP | 0.488 |
| RRIRTRPPRLPRPRPRPNHPPRP | 0.0542 |
| RRIRQRPPRLPRPRPRPECTPRP | 0.0484 |
| RRIRFRPPRLPRPRPRPVPCPRP | 0.0335 |
| RRIRCRPPRLPRPRPRPCDWPRP | 0.116 |
| RRIRYRPPRLPRPRPRPSFLPRP | -0.994 |
| RRIRYRPPRLPRPRPRPDHSPRP | -0.889 |
| RRIRHRPPRLPRPRPRPFQRPRP | 0.0038 |
| RRIRSRPPRLPRPRPRPCAGPRP | -0.0708 |
| RRIRMRPPRLPRPRPRPKDHPRP | 0.458 |
| RRIRPRPPRLPRPRPRPGAMPRP | 0.454 |
| RRIRPRPPRLPRPRPRPDVVPRP | -0.00973 |
| RRIRGRPPRLPRPRPRPAARPRP | 1.16 |
| RRIRLRPPRLPRPRPRPEEHPRP | 0.00515 |
| RRIRDRPPRLPRPRPRPSHWPRP | -0.178 |
| RRIRHRPPRLPRPRPRPEHDPRP | -0.051 |
| RRIRWRPPRLPRPRPRPCNGPRP | -0.0973 |
| RRIRQRPPRLPRPRPRPKGCPRP | -0.0208 |
| RRIRARPPRLPRPRPRPSWIPRP | -0.0935 |
| RRIRSRPPRLPRPRPRPKVNPRP | -0.333 |
| RRIRRRPPRLPRPRPRPEMDPRP | 0.186 |
| RRIRPRPPRLPRPRPRPTWHPRP | 0.316 |
| RRIRTRPPRLPRPRPRPHWYPRP | -0.135 |

| Sequence | shrunken log2 fold change |
| --- | --- |
| RRIRHRPPRLPRPRPRPYPTPRP | -0.219 |
| RRIRLRPPRLPRPRPRPGRAPRP | 0.469 |
| RRIRIRPPRLPRPRPRPETGPRP | -0.322 |
| RRIRERPPRLPRPRPRPYYHPRP | -1.58 |
| RRIRARPPRLPRPRPRPPTNPRP | 0.678 |
| RRIRERPPRLPRPRPRPEMRPRP | 0.151 |
| RRIRHRPPRLPRPRPRPMWDPRP | -0.0134 |
| RRIRFRPPRLPRPRPRPWCQPRP | -0.0361 |
| RRIRCRPPRLPRPRPRPQKRPRP | 0.0237 |
| RRIRKRPPRLPRPRPRPQFEPRP | 0.177 |
| RRIRQRPPRLPRPRPRPESPPRP | 0.0606 |
| RRIRLRPPRLPRPRPRPPNLPRP | -0.321 |
| RRIRWRPPRLPRPRPRPTYYPRP | -0.463 |
| RRIRYRPPRLPRPRPRPFWMPRP | -0.297 |
| RRIRTRPPRLPRPRPRPHKPPRP | -0.0565 |
| RRIRHRPPRLPRPRPRPPLSPRP | -0.0738 |
| RRIRSRPPRLPRPRPRPHFWPRP | 0.0758 |
| RRIRPRPPRLPRPRPRPDPNPRP | -0.133 |
| RRIRYRPPRLPRPRPRPLLAPRP | -0.197 |
| RRIRPRPPRLPRPRPRPEWCPRP | -0.0771 |
| RRIRKRPPRLPRPRPRPWVGPRP | 0.0422 |
| RRIRQRPPRLPRPRPRPDILPRP | -0.0607 |
| RRIRARPPRLPRPRPRPLHFPRP | 0.211 |
| RRIRDRPPRLPRPRPRPQFIPRP | -0.935 |
| RRIRPRPPRLPRPRPRPHVIPRP | -0.617 |

| Sequence | shrunken log2 fold change |
| --- | --- |
| RRIRLRPPRLPRPRPRPIHKPRP | 0.195 |
| RRIRNRPPRLPRPRPRPTVNPRP | -0.382 |
| RRIRARPPRLPRPRPRPMYYPRP | -0.433 |
| RRIRCRPPRLPRPRPRPYWKPRP | -0.737 |
| RRIRWRPPRLPRPRPRPCCMPRP | -0.196 |
| RRIRVRPPRLPRPRPRPKMNPRP | -0.262 |
| RRIRSRPPRLPRPRPRPMVMPRP | 0.0113 |
| RRIRPRPPRLPRPRPRPNVSPRP | -0.0557 |
| RRIRPRPPRLPRPRPRPPHWPRP | 0.865 |
| RRIRHRPPRLPRPRPRPYDQPRP | -0.291 |
| RRIRWRPPRLPRPRPRPGPSPRP | 0.223 |
| RRIRARPPRLPRPRPRPRHMPRP | -0.00102 |
| RRIRKRPPRLPRPRPRPMYRPRP | 0.0629 |
| RRIRQRPPRLPRPRPRPMLVPRP | 0.142 |
| RRIRQRPPRLPRPRPRPPSYPRP | -0.0228 |
| RRIRLRPPRLPRPRPRPHQNPRP | -0.149 |
| RRIRNRPPRLPRPRPRPAWSPRP | 0.0515 |
| RRIRDRPPRLPRPRPRPMMAPRP | -0.00174 |
| RRIRTRPPRLPRPRPRPYPAPRP | -0.277 |
| RRIRVRPPRLPRPRPRPWACPRP | -0.191 |
| RRIRRRPPRLPRPRPRPFVYPRP | -0.0209 |
| RRIRHRPPRLPRPRPRPGTTPRP | -0.221 |
| RRIRLRPPRLPRPRPRPFNAPRP | -0.154 |
| RRIRIRPPRLPRPRPRPYMSPRP | -1.19 |
| RRIRCRPPRLPRPRPRPMYYPRP | -0.472 |

| Sequence | shrunken log2 fold change |
| --- | --- |
| RRIRTRPPRLPRPRPRPFLSPRP | -0.195 |
| RRIRERPPRLPRPRPRPWIYPRP | 0.013 |
| RRIRGRPPRLPRPRPRPFFEPRP | 0.428 |
| RRIRNRPPRLPRPRPRPQLIPRP | -0.0323 |
| RRIRRRPPRLPRPRPRPLTIPRP | -0.133 |
| RRIRNRPPRLPRPRPRPGDLPRP | 0.107 |
| RRIRIRPPRLPRPRPRPDFTPRP | -0.355 |
| RRIRCRPPRLPRPRPRPFINPRP | -1.1 |
| RRIRERPPRLPRPRPRPQHNPRP | -0.771 |
| RRIRPRPPRLPRPRPRPIACPRP | 0.0852 |
| RRIRFRPPRLPRPRPRPLIKPRP | -0.31 |
| RRIRQRPPRLPRPRPRPYLMPRP | -1.39 |
| RRIRTRPPRLPRPRPRPLFKPRP | 1.5 |
| RRIRQRPPRLPRPRPRPEMPPRP | 0.188 |
| RRIRYRPPRLPRPRPRPRALPRP | 0.0114 |
| RRIRDRPPRLPRPRPRPLPVPRP | -0.421 |
| RRIRERPPRLPRPRPRPNREPRP | -0.0209 |
| RRIRYRPPRLPRPRPRPPEMPRP | 0.123 |
| RRIRKRPPRLPRPRPRPNLYPRP | -0.111 |
| RRIRTRPPRLPRPRPRPSPHPRP | -0.159 |
| RRIRNRPPRLPRPRPRPIHMPRP | 0.0468 |
| RRIRVRPPRLPRPRPRPIWIPRP | 0.0696 |
| RRIRTRPPRLPRPRPRPTMMPRP | -0.14 |
| RRIRTRPPRLPRPRPRPVLLPRP | -0.127 |
| RRIRARPPRLPRPRPRPTSNPRP | 0.00789 |
